Measured values published in patent publication US20120172293A1 (Takeda / Millennium, published 2012).
Starred links: 1 amine or outer side, 2 acyl side, 3 side chain; linkers in the order of their positions; H or OH if unused. Non-standard residues stand in square brackets, D forms with d. No end group written: not given here. *: point of attachment. X2 = (tetrahydro-2H-pyran-4-ylmethyl)carbamoyl, O=C(NCC1CCOCC1)*; (2-carboxyethyl)carbamoyl = O=C(O)CCNC(=O)*; Tetrahydropyran4carbonyl = O=C(C1CCOCC1)*; 2‑hydroxyethylcarbamoyl = O=C(NCCO)*; tBuAla = CC(C)(C)C[C@H](N)C(=O)O; 4Pal = N[C@@H](Cc1ccncc1)C(=O)O; dHyp = O=C(O)[C@H]1C[C@H](O)CN1; Cha = N[C@@H](CC1CCCCC1)C(=O)O; Suc = O=C(CCC(=O)[*:2])[*:1]; 4Amb = NCc1ccc(C(=O)O)cc1; Iva = CC[C@](C)(N)C(=O)O; Nva = CCC[C@H](N)C(=O)O; Aib = CC(C)(N)C(=O)O; Carbamoyl = NC(=O)*

T1: human Y2 receptor (human, UniProt P49146 1-381)
T1 sequence (looked up): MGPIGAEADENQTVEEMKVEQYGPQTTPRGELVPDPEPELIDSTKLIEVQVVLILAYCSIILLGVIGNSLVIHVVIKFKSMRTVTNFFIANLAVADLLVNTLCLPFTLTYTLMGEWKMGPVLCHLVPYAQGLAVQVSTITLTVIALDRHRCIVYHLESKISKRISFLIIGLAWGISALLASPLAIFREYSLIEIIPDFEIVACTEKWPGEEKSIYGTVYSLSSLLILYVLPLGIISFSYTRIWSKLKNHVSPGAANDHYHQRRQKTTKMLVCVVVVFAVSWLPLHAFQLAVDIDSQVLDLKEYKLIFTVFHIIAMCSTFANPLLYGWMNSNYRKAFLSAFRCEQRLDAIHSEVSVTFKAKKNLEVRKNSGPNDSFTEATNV


Experiments:
[1] = target: human Y2 receptor (human) (UniProt P49146); assay: RBA: displacement of [125I]-PYY from hY2R/CHO membranes
[2] = target: human Y2 receptor (human) (UniProt P49146); assay: cell-based or functional assay
[3] = target: T1, human Y2 receptor; assay: cell-based or functional assay
[4] = target: T1, human Y2 receptor; assay: RBA: [125I]-PYY displacement, hY2R/CHO membranes
Protocol: After incubation at room temperature for 60 minutes, the mixture was filtered through the cell harvester FilterMate (PerkinElmer) using UniFilter-96 GF/C treated with polyethylenimine (PEI) solution (20 mM Tris, 0.3% PEI, pH 7.4), and the filter was washed 3 times with a filtering buffer (50 mM Tris, 5 mM MgCl₂, 150 mM NaCl, 0.03% NaN₃, 0.05% CHAPS, pH 7.4). Thereafter, UniFilter-96 GF/C was dried in a mechanical drier for 1 hour, 15 μl of the liquid scintillator MicroScint O (PerkinElmer) was added to each well, and a measurement was taken using TopCount (PerkinElmer). The data obtained were analyzed using Prism to calculate the IC₅₀ value.

Row | Binder | IC50 Ratio (IC50 compound/IC50 PYY(3-36)) [1] | GBA EC50 Ratio ([35S]GTPγS binding) (EC50 compound/EC50 PYY(3-36)) [2] | GBA EC50 Ratio (vs PYY(3-36)), [35S]GTPγS [3] [ratio] | IC50 Ratio (vs PYY(3-36)) [4] [ratio]
1 | X2-S[dP][Iva][4Pal][Cha][Aib]NK[Aib]TRQR[Cha]-NH2 (SMILES CC[C@](C)(NC(=O)[C@H]1CCCN1C(=O)[C@H](CO)NC(=O)NCC1CCOCC1)C(=O)N[C@@H](Cc1ccncc1)C(=O)N[C@@H](CC1CCCCC1)C(=O)NC(C)(C)C(=O)N[C@@H](CC(N)=O)C(=O)N[C@@H](CCCCN)C(=O)NC(C)(C)C(=O)N[C@H](C(=O)N[C@@H](CCCNC(=N)N)C(=O)N[C@@H](CCC(N)=O)C(=O)N[C@@H](CCCNC(=N)N)C(=O)N[C@@H](CC1CCCCC1)C(N)=O)[C@@H](C)O) | 1.7 | 1.9 |  | 
2 | Tetrahydropyran4carbonyl-S[dP][Iva][4Pal][Cha][Aib]NK[Aib]TRQR[Cha]-NH2 (SMILES CC[C@](C)(NC(=O)[C@H]1CCCN1C(=O)[C@H](CO)NC(=O)C1CCOCC1)C(=O)N[C@@H](Cc1ccncc1)C(=O)N[C@@H](CC1CCCCC1)C(=O)NC(C)(C)C(=O)N[C@@H](CC(N)=O)C(=O)N[C@@H](CCCCN)C(=O)NC(C)(C)C(=O)N[C@H](C(=O)N[C@@H](CCCNC(=N)N)C(=O)N[C@@H](CCC(N)=O)C(=O)N[C@@H](CCCNC(=N)N)C(=O)N[C@@H](CC1CCCCC1)C(N)=O)[C@@H](C)O) [(Tetrahydro-2H-pyran-4-yl)carbonyl-[D-Pro24, Iva25, Pya(4)26, Cha27,36, Aib28,31, Lys30]-PYY(23-36)] | 3.3 | 1.9 |  | 
3 | Ac-S[dP][Iva][4Pal][Cha][Nva]NK[Aib]TRQR[Cha]-NH2 (SMILES CCC[C@H](NC(=O)[C@H](CC1CCCCC1)NC(=O)[C@H](Cc1ccncc1)NC(=O)[C@](C)(CC)NC(=O)[C@H]1CCCN1C(=O)[C@H](CO)NC(C)=O)C(=O)N[C@@H](CC(N)=O)C(=O)N[C@@H](CCCCN)C(=O)NC(C)(C)C(=O)N[C@H](C(=O)N[C@@H](CCCNC(=N)N)C(=O)N[C@@H](CCC(N)=O)C(=O)N[C@@H](CCCNC(=N)N)C(=O)N[C@@H](CC1CCCCC1)C(N)=O)[C@@H](C)O) [Ac-[D-Pro24, Iva25, Pya(4)26, Cha27,36, Nva28, Aib31, Lys30]-PYY(23-36)] | 1.6 | 1.3 |  | 
4 | {(2-carboxyethyl)carbamoyl}-S[dP][Iva][4Pal][Cha][Aib]NK[Aib]TRQR[Cha]-NH2 (SMILES CC[C@](C)(NC(=O)[C@H]1CCCN1C(=O)[C@H](CO)NC(=O)NCCC(=O)O)C(=O)N[C@@H](Cc1ccncc1)C(=O)N[C@@H](CC1CCCCC1)C(=O)NC(C)(C)C(=O)N[C@@H](CC(N)=O)C(=O)N[C@@H](CCCCN)C(=O)NC(C)(C)C(=O)N[C@H](C(=O)N[C@@H](CCCNC(=N)N)C(=O)N[C@@H](CCC(N)=O)C(=O)N[C@@H](CCCNC(=N)N)C(=O)N[C@@H](CC1CCCCC1)C(N)=O)[C@@H](C)O) [(2-Carboxyethyl)carbamoyl-[D-Pro24, Iva25, Pya(4)26, Cha27,36, Aib28,31, Lys30]-PYY(23-36)] | 3.2 | 2.4 |  | 
5 | Carbamoyl-S[dP]RH[Cha][Cha]NL[Aib]TRQR[Cha]-NH2 (SMILES CC(C)C[C@H](NC(=O)[C@H](CC(N)=O)NC(=O)[C@H](CC1CCCCC1)NC(=O)[C@H](CC1CCCCC1)NC(=O)[C@H](Cc1c[nH]cn1)NC(=O)[C@H](CCCNC(=N)N)NC(=O)[C@H]1CCCN1C(=O)[C@H](CO)NC(N)=O)C(=O)NC(C)(C)C(=O)N[C@H](C(=O)N[C@@H](CCCNC(=N)N)C(=O)N[C@@H](CCC(N)=O)C(=O)N[C@@H](CCCNC(=N)N)C(=O)N[C@@H](CC1CCCCC1)C(N)=O)[C@@H](C)O, also called compound No. 130; Ureido-[D-Pro24,Cha27,28,36,Aib31]-PYY(23-36)) [Carbamoyl-[D-Pro24, Cha27,28,36, Aib31]-PYY(23-36)] |  |  | 1 | 1.8
6 | {2‑hydroxyethylcarbamoyl}-E[dP]RH[Cha][Cha]NK[Aib]TRQR[Cha]-NH2 (SMILES C[C@@H](O)[C@H](NC(=O)C(C)(C)NC(=O)[C@H](CCCCN)NC(=O)[C@H](CC(N)=O)NC(=O)[C@H](CC1CCCCC1)NC(=O)[C@H](CC1CCCCC1)NC(=O)[C@H](Cc1c[nH]cn1)NC(=O)[C@H](CCCNC(=N)N)NC(=O)[C@H]1CCCN1C(=O)[C@H](CCC(=O)O)NC(=O)NCCO)C(=O)N[C@@H](CCCNC(=N)N)C(=O)N[C@@H](CCC(N)=O)C(=O)N[C@@H](CCCNC(=N)N)C(=O)N[C@@H](CC1CCCCC1)C(N)=O, also called compound No. 192) [2-Hydroxyethylcarbamoyl-[Glu23, D-Pro24, Cha27,28,36, Lys30, Aib31]-PYY(23-36)] |  |  | 1.2 | 1.3
7 | Suc-S[dP]RH[Cha][Cha]NK[Aib]TRQR[Cha]-NH2 (SMILES C[C@@H](O)[C@H](NC(=O)C(C)(C)NC(=O)[C@H](CCCCN)NC(=O)[C@H](CC(N)=O)NC(=O)[C@H](CC1CCCCC1)NC(=O)[C@H](CC1CCCCC1)NC(=O)[C@H](Cc1c[nH]cn1)NC(=O)[C@H](CCCNC(=N)N)NC(=O)[C@H]1CCCN1C(=O)[C@H](CO)NC(=O)CCC(=O)O)C(=O)N[C@@H](CCCNC(=N)N)C(=O)N[C@@H](CCC(N)=O)C(=O)N[C@@H](CCCNC(=N)N)C(=O)N[C@@H](CC1CCCCC1)C(N)=O, also called compound No. 167) [3-Carboxypropionyl-[D-Pro24, Cha27,28,36, Lys30, Aib31]-PYY(23-36)] |  |  | 1.1 | 0.64
8 | Ac-S[dP]RH[Cha][Cha]NT[Aib]TRQR[Cha]-NH2 (SMILES CC(=O)N[C@@H](CO)C(=O)N1CCC[C@@H]1C(=O)N[C@@H](CCCNC(=N)N)C(=O)N[C@@H](Cc1c[nH]cn1)C(=O)N[C@@H](CC1CCCCC1)C(=O)N[C@@H](CC1CCCCC1)C(=O)N[C@@H](CC(N)=O)C(=O)N[C@H](C(=O)NC(C)(C)C(=O)N[C@H](C(=O)N[C@@H](CCCNC(=N)N)C(=O)N[C@@H](CCC(N)=O)C(=O)N[C@@H](CCCNC(=N)N)C(=O)N[C@@H](CC1CCCCC1)C(N)=O)[C@@H](C)O)[C@@H](C)O, also called compound No. 132) [Ac-[D-Pro24, Cha27,28,36, Thr30, Aib31]-PYY(23-36)] |  |  | 3.1 | 6.1
9 | Ac-N[dP]RH[Cha][Cha]NL[Aib]TRQR[Cha]-NH2 (SMILES CC(=O)N[C@@H](CC(N)=O)C(=O)N1CCC[C@@H]1C(=O)N[C@@H](CCCNC(=N)N)C(=O)N[C@@H](Cc1c[nH]cn1)C(=O)N[C@@H](CC1CCCCC1)C(=O)N[C@@H](CC1CCCCC1)C(=O)N[C@@H](CC(N)=O)C(=O)N[C@@H](CC(C)C)C(=O)NC(C)(C)C(=O)N[C@H](C(=O)N[C@@H](CCCNC(=N)N)C(=O)N[C@@H](CCC(N)=O)C(=O)N[C@@H](CCCNC(=N)N)C(=O)N[C@@H](CC1CCCCC1)C(N)=O)[C@@H](C)O, also called compound No. 115) [Ac-[Asn23, D-Pro24, Cha27,28,36, Aib31]-PYY(23-36)] |  |  | 1.7 | 2.4
10 | {2‑hydroxyethylcarbamoyl}-S[dP]RH[Cha][tBuAla]NK[Aib]TRQR[Cha]-NH2 (SMILES C[C@@H](O)[C@H](NC(=O)C(C)(C)NC(=O)[C@H](CCCCN)NC(=O)[C@H](CC(N)=O)NC(=O)[C@H](CC(C)(C)C)NC(=O)[C@H](CC1CCCCC1)NC(=O)[C@H](Cc1c[nH]cn1)NC(=O)[C@H](CCCNC(=N)N)NC(=O)[C@H]1CCCN1C(=O)[C@H](CO)NC(=O)NCCO)C(=O)N[C@@H](CCCNC(=N)N)C(=O)N[C@@H](CCC(N)=O)C(=O)N[C@@H](CCCNC(=N)N)C(=O)N[C@@H](CC1CCCCC1)C(N)=O, also called compound No. 188) [2-Hydroxyethylcarbamoyl-[D-Pro24, Cha27,36, Leu(Me)28, Lys30, Aib31]-PYY(23-36)] |  |  | 0.71 | 0.6
11 | Ac-E[dHyp][Iva][4Pal][Cha][tBuAla]NK[Aib]TRQR[Cha]-NH2 (SMILES CC[C@](C)(NC(=O)[C@H]1C[C@H](O)CN1C(=O)[C@H](CCC(=O)O)NC(C)=O)C(=O)N[C@@H](Cc1ccncc1)C(=O)N[C@@H](CC1CCCCC1)C(=O)N[C@@H](CC(C)(C)C)C(=O)N[C@@H](CC(N)=O)C(=O)N[C@@H](CCCCN)C(=O)NC(C)(C)C(=O)N[C@H](C(=O)N[C@@H](CCCNC(=N)N)C(=O)N[C@@H](CCC(N)=O)C(=O)N[C@@H](CCCNC(=N)N)C(=O)N[C@@H](CC1CCCCC1)C(N)=O)[C@@H](C)O) [Ac-[Glu23, D-Hyp24, Iva25, Pya(4)26, Cha27,36, Leu(Me)28, Lys30, Aib31]-PYY(23-36)] | 1.2 | 1.9 |  | 
12 | [4Amb][dR]AYINLITRQRY-NH2 (N-terminus assumed; SMILES CC[C@H](C)[C@H](NC(=O)[C@H](Cc1ccc(O)cc1)NC(=O)[C@H](C)NC(=O)[C@@H](CCCNC(=N)N)NC(=O)c1ccc(CN)cc1)C(=O)N[C@@H](CC(N)=O)C(=O)N[C@@H](CC(C)C)C(=O)N[C@H](C(=O)N[C@H](C(=O)N[C@@H](CCCNC(=N)N)C(=O)N[C@@H](CCC(N)=O)C(=O)N[C@@H](CCCNC(=N)N)C(=O)N[C@@H](Cc1ccc(O)cc1)C(N)=O)[C@@H](C)O)[C@@H](C)CC, also called compound No. 9) [4-Aminomethylbenzoyl-[D-Arg25, Ala26, Ile28,31]-PYY(25-36)] |  |  | 23 | 92
